Patent publication US20050238649A1

Target: human HER2 (ErbB2) receptor (human) (UniProt P04626)
Assay: cell-based or functional assay

maximum inhibition of cell proliferation of SK-BR-3 cells [%] | IC50, cell proliferation assay (CellTiter-Glo), BT474 cells [µg ADC/ml] | IC50, cell proliferation assay (CellTiter-Glo), SK-BR-3 cells [µg ADC/ml] | Substance
66 | – | – | murine monoclonal antibody 4D5
– | 0.04 | 0.02 | 4D5 Fab-MC-vc-PAB-MMAF, 1.5 MMAF/Ab
